This is an account of results in patent US20140087995A1 (published 2014).

The target in assay [1] is T1, human calcitonin receptor (human, UniProt P30988 25-474).
T1 construct: whole, on cells; Used as membranes prepared from the transfected cells (Assay VII); also called hCTR; hCT
T1 sequence (looked up): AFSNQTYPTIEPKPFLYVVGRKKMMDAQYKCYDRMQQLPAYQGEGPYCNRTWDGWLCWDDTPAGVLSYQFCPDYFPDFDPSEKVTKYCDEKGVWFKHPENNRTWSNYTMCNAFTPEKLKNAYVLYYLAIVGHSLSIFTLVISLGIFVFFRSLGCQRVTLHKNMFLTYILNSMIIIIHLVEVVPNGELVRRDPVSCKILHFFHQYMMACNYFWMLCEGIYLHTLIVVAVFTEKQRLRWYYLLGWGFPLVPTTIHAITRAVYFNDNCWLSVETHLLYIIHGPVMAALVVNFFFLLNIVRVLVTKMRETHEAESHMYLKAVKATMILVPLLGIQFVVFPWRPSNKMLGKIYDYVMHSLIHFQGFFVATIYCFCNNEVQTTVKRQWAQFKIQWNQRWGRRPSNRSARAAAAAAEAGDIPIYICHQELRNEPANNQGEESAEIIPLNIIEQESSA
The assay is described as follows: ratio IC50 human calcitonin receptor / IC50 human amylin receptor (Assays VII and V). The protocol:
(§1) The resulting pellet was resuspended, homogenized and centrifuged (20.000 rpm, 15 min) in a buffer containing 20 mM Na-HEPES and 0.1 mM EDTA (pH 7.4, buffer 2). The resulting pellet was resuspended in buffer 2 and protein concentration was measured (BCA protein Assay, Pierce). The homogenate was kept cold during the whole procedure. The membranes were kept at −80° C. until use. The assay was performed in a 384 well Optiplate (PerkinElmer) in a total volume of 40 ul. Membranes were mixed with SPA beads. Final concentration of membranes 35 ng/μL final and SPA beads was 0.05 mg/well. Test-compounds were dissolved in DMSO and further diluted in assay buffer (50 mM Hepes, pH 7.4, 1 mM CaCl2, 5 mM MgCl₂, 0.1% OA and 0.02% Tween20). […] The final mixture was incubated with shaking at 400 rpm for 120 min at 25° C. prior to centrifugation (1500 rpm, 10 min). Samples were analyzed on TopCounter™ (Packard). The IC₅₀ was calculated using (one site binding competition analysis) GraphPad Prism5 as a measure of receptor affinity.
(§2) Membranes were prepared in the following way; the cells were rinsed with PBS and incubated with Versene for approximately 5 min before harvesting. The cells were flushed with PBS and the cell-suspension was centrifuged for 5 min at 1000 rpm. Cells were homogenized (Ultrathurrax) in a buffer containing 20 mM Na-HEPES and 10 mM EDTA (pH 7.4) and centrifuged at 20.000 rpm for 15 min. The resulting pellet was resuspended, homogenized and centrifuged (20.000 rpm, 15 min) in a buffer containing 20 mM Na-HEPES and 0.1 mM EDTA (pH 7.4, buffer 2). The resulting pellet was resuspended in buffer 2 and protein concentration was measured (BCA protein Assay, Pierce). The homogenate was kept cold during the whole procedure. The membranes were kept at −80° C. until use. Assay was performed in a 384 well Optiplate (PerkinElmer) in a total volume of 40 ul. Membranes were mixed with SPA beads.

Assay [2] concerns the target T2, rat calcitonin receptor (rat, UniProt P32214 25-516).
T2 construct: whole, on cells; Used as membranes prepared from BHK tk'ts 13 cells transiently transfected with the rat calcitonin receptor (Assay VIII); also called rCTR; rat calcitonin (a) receptor
T2 sequence (looked up): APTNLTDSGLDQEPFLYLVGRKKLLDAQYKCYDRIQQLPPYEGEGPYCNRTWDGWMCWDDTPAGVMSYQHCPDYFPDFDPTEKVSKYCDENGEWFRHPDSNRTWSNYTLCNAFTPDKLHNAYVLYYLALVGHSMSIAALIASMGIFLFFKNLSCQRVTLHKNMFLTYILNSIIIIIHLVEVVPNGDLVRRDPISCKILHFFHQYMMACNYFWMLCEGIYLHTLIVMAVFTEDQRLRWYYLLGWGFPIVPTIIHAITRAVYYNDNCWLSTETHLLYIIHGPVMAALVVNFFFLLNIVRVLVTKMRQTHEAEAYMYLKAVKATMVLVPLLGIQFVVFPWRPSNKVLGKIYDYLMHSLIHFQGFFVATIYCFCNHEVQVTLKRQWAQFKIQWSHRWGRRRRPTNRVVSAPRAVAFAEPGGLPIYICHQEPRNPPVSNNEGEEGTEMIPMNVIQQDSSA
Briefly: IC50 on rat CTR divided by IC50 on rat amylin receptor (Assays VIII/VI).

Assay [3] has as its target T3, human calcitonin receptor (human, UniProt P30988 25-474).
T3 construct: whole, on cells; Used as membranes prepared from a BHK tk'ts 13 cell line stably transfected with the human calcitonin receptor (Assay VII); also called hCTR; hCT
T3 sequence (looked up): T1 sequence (looked up)
Briefly: IC50 on human CTR divided by IC50 on human amylin receptor (Assays VII/V). The protocol: as §1, §2

For assay [4], the target named is T2, rat calcitonin receptor. The assay is described as follows: SPA competition with 125I-calcitonin, membranes of BHK cells with rat CTR (Assay VIII).
The target in assay [5] is T4, rat amylin receptor (rat calcitonin receptor + rat RAMP 3) (rat, UniProt P32214 25-516; Q9JJ73 23-147).
T4 construct: whole, on cells; Used as membranes prepared from BHK tk'ts 13 cells transiently transfected with rat calcitonin receptor and rat RAMP 3 (Assay VI); also called rAmylin-R; rat amylin 3(a) receptor
T4 sequence (looked up) 1: T2 sequence (looked up)
T4 sequence (looked up) 2: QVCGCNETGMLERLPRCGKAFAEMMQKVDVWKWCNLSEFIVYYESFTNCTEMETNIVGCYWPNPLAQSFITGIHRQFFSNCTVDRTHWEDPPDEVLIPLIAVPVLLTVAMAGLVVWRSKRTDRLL
Briefly: SPA competition with 125I-rat amylin, membranes of BHK cells with rat CTR + rat RAMP3 (Assay VI). The protocol:
The binding assay was performed using scintillation proximity assay (SPA) beads (RPNQ0001) from PerkinElmer and cell membranes from the Amylin 3(a)/CRE-luc cells (as described in Assay (II)) were used. Membranes were prepared in the following way; the cells were rinsed with PBS and incubated with Versene for approximately 5 min before harvesting. The cells were flushed with PBS and the cell-suspension was centrifuged for 5 min at 1000 rpm. Cells were homogenized (ultrathurrax) in a buffer containing 20 mM Na-HEPES and 10 mM EDTA (pH 7.4) and centrifuged at 20.000 rpm for 15 min. The resulting pellet was resuspended, homogenized and centrifuged (20.000 rpm, 15 min) in a buffer containing 20 mM Na-HEPES and 0.1 mM EDTA (pH 7.4, buffer 2). The resulting pellet was resuspended in buffer 2 and protein concentration was measured (BCA protein Assay, Pierce). The homogenate was kept cold during the whole procedure. The membranes were kept at −80° C. until use. The assay was performed in a 384 well Optiplate (PerkinElmer) in a total volume of 40 ul. Membranes were mixed with SPA beads. Final concentration of membranes 35 ng/μL final and SPA beads was 0.05 mg/well. Test-compounds were dissolved in DMSO and further diluted in assay buffer (50 mM Hepes, pH 7.4, 1 mM CaCl2, 5 mM MgCl₂, 0.1% OA and 0.02% Tween20). […] The final mixture was incubated with shaking at 400 rpm for 120 min at 25° C. prior to centrifugation (1500 rpm, 10 min). Samples were analyzed on TopCounter™ (Packard). The IC₅₀ was calculated using (one site binding competition analysis) GraphPad Prism5 as a measure of receptor affinity.
Cells were grown in DMEM with 10% FBS and 1% Pen/Strep. Approximately 48 hours after transfection, the cells were harvested and membranes were prepared.

Numbered stars: 1 amine (or outer) side, 2 acyl side, 3 side chain; on linkers, the order of the positions; unused ones are H or OH. Bridge positions count the residues as written; N and C are the ends. Side chains are listed from the residue outwards. Ends that are not written are not given here. * marks the point of attachment. C20 diacid = O=C(O)CCCCCCCCCCCCCCCCCCC(=O)*; γGlu = O=C(O)[C@H](CCC(=O)[*:2])N[*:1]; AEEA = NCCOCCOCC(=O)O

B1: N^ε1-[(4S)-4-carboxy-4-[[(4S)-4-carboxy-4-(19-carboxynonadecanoylamino)butanoyl]amino]butanoyl]-[Glu14,Arg17,Pro21,Pro27,Pro37]-h-amylin (peptide)
peptide: K([γGlu-γGlu-C20 diacid])CNTATCATQRLAEFLRHSSPNFGAIPSSTNVGSNTP-NH2
modifications: disulfide 2-7 (inferred)
notes: Derivative of human amylin; also called compound 13
In the case of B1, the “Ratio hCT/hAmylin binding” value in assay [1] was 1.2.

B2: N^α1 N^α1-[(4S)-4-carboxy-4-[[(4S)-4-carboxy-4-(19-carboxynonadecanoylamino)butanoyl]amino]butanoyl]-[Glu14,Arg17,Pro21,Pro27]-h-amylin (peptide)
peptide: {C20 diacid-γGlu-γGlu}-KCNTATCATQRLAEFLRHSSPNFGAIPSSTNVGSNTY-NH2
modifications: disulfide 2-7
SMILES: CC[C@H](C)[C@H](NC(=O)[C@H](C)NC(=O)CNC(=O)[C@H](Cc1ccccc1)NC(=O)[C@H](CC(N)=O)NC(=O)[C@@H]1CCCN1C(=O)[C@H](CO)NC(=O)[C@H](CO)NC(=O)[C@H](Cc1c[nH]cn1)NC(=O)[C@H](CCCNC(=N)N)NC(=O)[C@H](CC(C)C)NC(=O)[C@H](Cc1ccccc1)NC(=O)[C@H](CCC(=O)O)NC(=O)[C@H](C)NC(=O)[C@H](CC(C)C)NC(=O)[C@H](CCCNC(=N)N)NC(=O)[C@H](CCC(N)=O)NC(=O)[C@@H](NC(=O)[C@H](C)NC(=O)[C@@H]1CSSC[C@H](NC(=O)[C@H](CCCCN)NC(=O)CC[C@H](NC(=O)CC[C@H](NC(=O)CCCCCCCCCCCCCCCCCCC(=O)O)C(=O)O)C(=O)O)C(=O)N[C@@H](CC(N)=O)C(=O)N[C@@H]([C@@H](C)O)C(=O)N[C@@H](C)C(=O)N[C@@H]([C@@H](C)O)C(=O)N1)[C@@H](C)O)C(=O)N1CCC[C@H]1C(=O)N[C@@H](CO)C(=O)N[C@@H](CO)C(=O)N[C@H](C(=O)N[C@@H](CC(N)=O)C(=O)N[C@H](C(=O)NCC(=O)N[C@@H](CO)C(=O)N[C@@H](CC(N)=O)C(=O)N[C@H](C(=O)N[C@@H](Cc1ccc(O)cc1)C(N)=O)[C@@H](C)O)C(C)C)[C@@H](C)O
notes: Derivative of human amylin; also called compound 15
On to B2, for which the “Ratio hCT/hAmylin binding” value in assay [1] came to 26.

B3: N^ε1-[2-[2-[2-(19-carboxynonadecanoylamino)ethoxy]ethoxy]acetyl]-[Arg17,Pro21,Pro27]-h-amylin (peptide)
peptide: K([AEEA-C20 diacid])CNTATCATQRLANFLRHSSPNFGAIPSSTNVGSNTY-NH2
modifications: disulfide 2-7; N-terminus assumed
SMILES: CC[C@H](C)[C@H](NC(=O)[C@H](C)NC(=O)CNC(=O)[C@H](Cc1ccccc1)NC(=O)[C@H](CC(N)=O)NC(=O)[C@@H]1CCCN1C(=O)[C@H](CO)NC(=O)[C@H](CO)NC(=O)[C@H](Cc1c[nH]cn1)NC(=O)[C@H](CCCNC(=N)N)NC(=O)[C@H](CC(C)C)NC(=O)[C@H](Cc1ccccc1)NC(=O)[C@H](CC(N)=O)NC(=O)[C@H](C)NC(=O)[C@H](CC(C)C)NC(=O)[C@H](CCCNC(=N)N)NC(=O)[C@H](CCC(N)=O)NC(=O)[C@@H](NC(=O)[C@H](C)NC(=O)[C@@H]1CSSC[C@H](NC(=O)[C@@H](N)CCCCNC(=O)COCCOCCNC(=O)CCCCCCCCCCCCCCCCCCC(=O)O)C(=O)N[C@@H](CC(N)=O)C(=O)N[C@@H]([C@@H](C)O)C(=O)N[C@@H](C)C(=O)N[C@@H]([C@@H](C)O)C(=O)N1)[C@@H](C)O)C(=O)N1CCC[C@H]1C(=O)N[C@@H](CO)C(=O)N[C@@H](CO)C(=O)N[C@H](C(=O)N[C@@H](CC(N)=O)C(=O)N[C@H](C(=O)NCC(=O)N[C@@H](CO)C(=O)N[C@@H](CC(N)=O)C(=O)N[C@H](C(=O)N[C@@H](Cc1ccc(O)cc1)C(N)=O)[C@@H](C)O)C(C)C)[C@@H](C)O
notes: Analogue of human amylin; also called compound 43
What is called IC50 is the concentration that gives 50% inhibition. Turning to B3, the “Ratio rCT/rAmylin binding” value with rat calcitonin receptor [2] came to 69.1. For the same molecule, the “Ratio hCT/hAmylin binding” value in assay [3] was found to be 34.7. The figures for the IC50 (with rat calcitonin receptor [4]; in assay [5]) were 7.6 nM and 0.11 nM, respectively.

B4: N^ε1-[2-[2-[2-[[(4S)-4-carboxy-4-(19-carboxynonadecanoylamino)butanoyl]amino]ethoxy]ethoxy]acetyl]-[Ala14,Arg17,Pro21,Pro27,Pro31]-h-amylin (peptide)
peptide: K([AEEA-γGlu-C20 diacid])CNTATCATQRLAAFLRHSSPNFGAIPSSTPVGSNTY-NH2
modifications: disulfide 2-7; N-terminus assumed
SMILES: CC[C@H](C)[C@H](NC(=O)[C@H](C)NC(=O)CNC(=O)[C@H](Cc1ccccc1)NC(=O)[C@H](CC(N)=O)NC(=O)[C@@H]1CCCN1C(=O)[C@H](CO)NC(=O)[C@H](CO)NC(=O)[C@H](Cc1c[nH]cn1)NC(=O)[C@H](CCCNC(=N)N)NC(=O)[C@H](CC(C)C)NC(=O)[C@H](Cc1ccccc1)NC(=O)[C@H](C)NC(=O)[C@H](C)NC(=O)[C@H](CC(C)C)NC(=O)[C@H](CCCNC(=N)N)NC(=O)[C@H](CCC(N)=O)NC(=O)[C@@H](NC(=O)[C@H](C)NC(=O)[C@@H]1CSSC[C@H](NC(=O)[C@@H](N)CCCCNC(=O)COCCOCCNC(=O)CC[C@H](NC(=O)CCCCCCCCCCCCCCCCCCC(=O)O)C(=O)O)C(=O)N[C@@H](CC(N)=O)C(=O)N[C@@H]([C@@H](C)O)C(=O)N[C@@H](C)C(=O)N[C@@H]([C@@H](C)O)C(=O)N1)[C@@H](C)O)C(=O)N1CCC[C@H]1C(=O)N[C@@H](CO)C(=O)N[C@@H](CO)C(=O)N[C@H](C(=O)N1CCC[C@H]1C(=O)N[C@H](C(=O)NCC(=O)N[C@@H](CO)C(=O)N[C@@H](CC(N)=O)C(=O)N[C@H](C(=O)N[C@@H](Cc1ccc(O)cc1)C(N)=O)[C@@H](C)O)C(C)C)[C@@H](C)O
notes: Analogue of human amylin; also called compound 72
For B4, the “Ratio rCT/rAmylin binding” value with rat calcitonin receptor [2] is 259. Further, the “Ratio hCT/hAmylin binding” value in assay [3] was 247. The IC50 in the assay with rat calcitonin receptor [4] came out at 221 nM; in assay [5], 0.851 nM.
